The values below come from paper PMC7294595 (2020).

Experiment [1] concerns the target T1, ac-pTyr (gp130-derived phosphopeptide) (Homo sapiens).
T1 chain: Ac-G[pY]LPQTV-NH2
Kind of experiment: competition fluorescence polarization.

The target of a further experiment is T2, CPP12-pTyr (Homo sapiens, not fully specified).
T2 chain: {CPP12-βAla-βAla}-G[pY]LPQTV-NH2
Kind of experiment: competition fluorescence polarization. Background: Fluorescence polarisation rises when a labelled molecule tumbles more slowly, as on binding a larger partner.

[ ]: non-standard residue; d: D form. CPP12 = cyclic cell-penetrating peptide fused at the N-terminus; pY = N[C@@H](Cc1ccc(OP(=O)(O)O)cc1)C(=O)O; βAla = NCCC(=O)O

B1: STAT3 127-711 (protein)
chain: GQANHPTAAVVTEKQQMLEQHLQDVRKRVQDLEQKMKVVENLQDDFDFNYKTLKSQGDMQDLNGNNQSVTRQKMQQLEQMLTALDQMRRSIVSELAGLLSAMEYVQKTLTDEELADWKRRQQIACIGGPPNICLDRLENWITSLAESQLQTRQQIKKLEELQQKVSYKGDPIVQHRPMLEERIVELFRNLMKSAFVVERQPCMPMHPDRPLVIKTGVQFTTKVRLLVKFPELNYQLKIKVCIDKDSGDVAALRGSRKFNILGTNTKVMNMEESNNGSLSAEFKHLTLREQRCGNGGRANCDASLIVTEELHLITFETEVYHQGLKIDLETHSLPVVVISNICQMPNAWASILWYNMLTNNPKNVNFFTKPPIGTWDQVAEVLSWQFSSTTKRGLSIEQLTTLAEKLLGPGVNYSGCQITWAKFCKENMAGKGFSFWVWLDNIIDLVKKYILALWNEGYIMGFISKERERAILSTKPPGTFLLRFSESSKEGGVTFTWVEKDISGKTQIQSVEPYTKQQLNNMSFAEIIMGYKIMDATNILVSPLVYLYPDIPKEEAFGKYCRPESQEHPEADPGSAAPYLKTKFI
What is called IC50 is the concentration that gives 50% inhibition. A lower IC50 goes with inhibition by little substance. Consider B1, for which the IC50 amounted to 610 nM in experiment [1] and 410 nM with CPP12-pTyr.
